T1: human B7H3 on the cell surface (A498, CT26/hB7H3, U87, Detroit562 cells) (human, UniProt Q5ZPR3 29-534)
T1 construct: Endogenous on A498, U87 and Detroit562 tumor cells, over-expressed on CT26/hB7H3
T1 sequence: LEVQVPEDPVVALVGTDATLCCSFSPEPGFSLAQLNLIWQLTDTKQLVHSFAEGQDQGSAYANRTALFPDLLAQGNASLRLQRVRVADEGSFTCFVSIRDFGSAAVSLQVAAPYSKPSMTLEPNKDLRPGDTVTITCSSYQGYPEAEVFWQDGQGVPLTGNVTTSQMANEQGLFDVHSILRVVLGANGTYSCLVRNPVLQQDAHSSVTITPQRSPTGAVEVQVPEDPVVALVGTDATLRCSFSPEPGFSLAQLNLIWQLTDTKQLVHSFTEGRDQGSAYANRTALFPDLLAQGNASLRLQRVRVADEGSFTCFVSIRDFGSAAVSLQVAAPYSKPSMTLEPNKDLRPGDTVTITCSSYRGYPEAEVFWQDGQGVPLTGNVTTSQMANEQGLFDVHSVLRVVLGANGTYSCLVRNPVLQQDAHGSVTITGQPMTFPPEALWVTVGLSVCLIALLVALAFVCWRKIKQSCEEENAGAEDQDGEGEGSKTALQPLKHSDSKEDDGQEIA

T2: Monkey B7H3 antigen for detection (SinoBiological cat #90806-C08H) (monkey (cyno))
T2 construct: Bought antigen; also called monkey (cyno) B7H3
T2 chain: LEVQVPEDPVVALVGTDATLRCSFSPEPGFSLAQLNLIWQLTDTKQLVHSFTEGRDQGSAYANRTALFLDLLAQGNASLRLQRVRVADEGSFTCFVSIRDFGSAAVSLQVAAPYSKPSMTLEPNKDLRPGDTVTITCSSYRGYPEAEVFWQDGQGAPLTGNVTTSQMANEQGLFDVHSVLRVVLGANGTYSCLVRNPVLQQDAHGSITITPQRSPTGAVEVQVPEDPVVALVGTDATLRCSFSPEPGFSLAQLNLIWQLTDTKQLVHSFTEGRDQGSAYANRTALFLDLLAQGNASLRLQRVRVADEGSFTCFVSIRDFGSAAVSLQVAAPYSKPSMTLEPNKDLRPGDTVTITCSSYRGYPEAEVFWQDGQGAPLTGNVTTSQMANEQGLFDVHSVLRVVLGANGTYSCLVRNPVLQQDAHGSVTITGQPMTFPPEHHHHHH

T3: Human B7H3 antigen for detection (SinoBiological cat #11188-H08H) (human, UniProt Q5ZPR3 29-461)
T3 construct: Bought antigen
T3 sequence: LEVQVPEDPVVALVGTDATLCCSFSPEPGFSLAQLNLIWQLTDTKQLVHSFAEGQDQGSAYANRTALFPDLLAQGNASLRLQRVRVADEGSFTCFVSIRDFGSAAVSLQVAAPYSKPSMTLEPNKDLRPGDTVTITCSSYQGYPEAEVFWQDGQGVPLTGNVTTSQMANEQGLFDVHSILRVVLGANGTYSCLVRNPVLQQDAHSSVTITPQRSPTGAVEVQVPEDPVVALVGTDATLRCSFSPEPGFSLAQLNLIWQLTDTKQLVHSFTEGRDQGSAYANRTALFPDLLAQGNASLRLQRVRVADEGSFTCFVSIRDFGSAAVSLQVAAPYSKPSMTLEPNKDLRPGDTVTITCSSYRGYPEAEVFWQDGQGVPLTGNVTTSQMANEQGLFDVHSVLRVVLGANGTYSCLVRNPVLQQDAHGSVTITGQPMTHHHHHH


Key:
[1] = target: human CD3 on the cell surface (Jurkat recombinant cells; T cells of PBMC) (human, UniProt P07766 23-207; P04234 22-171); test: FACS on Jurkat recombinant cells expressing CD3, APC anti-human IgG Fc detection, geometric mean fluorescence
Description: (§1) The ability of bispecific antibodies to bind to cell surface antigens was detected by FACS method.
(§2) FACS buffer (98% PBS, 2% FBS) was added into a 96-well U-shaped bottom plate (corning, 3795) to resuspend the cells, the serially diluted antibodies were added, incubated at 4° C. for 1 hour, and the plate was washed with FACS buffer twice. Then APC anti-human IgG Fc Antibody (biolegend, Cat #409306, dilution at 1:50) was added into each well, incubated at 4° C. for 30 minutes, washed twice, the cells were resuspended in FACS buffer, and finally the fluorescence signal values were read by FACS CantoII (BD).

[2] = target: T1, human B7H3 on the cell surface (A498, …); test: FACS on CT26/hB7H3 cells over-expressing human B7H3, APC anti-human IgG Fc detection, geometric mean fluorescence
Description: as §1, §2

[3] = target: T1, human B7H3 on the cell surface (A498, …); test: cell-based or functional assay
[4] = target: T2, Monkey B7H3 antigen for detection …; test: Biacore T200 SPR, bispecific antibody captured, antigen as analyte, 1:1 Langmuir fit
Description: (§3) The detection of antibody affinity to B7H3 and CD3 was performed in the form of capture antibody. BsAb was captured by CM5 biosensor chip (Cat. #BR-1005-30, GE) or Protein A (Cat. #29127556, GE) biosensor chip coupled with Anti-Human IgG Antibody (Cat. #BR-1008-39, Lot. #10260416, GE), and then each antigen flowed through the surface of the chip. The reaction signals were detected in real time with the Biacore T200 instrument to obtain the binding and dissociation curves. After the dissociation of each experimental cycle was completed, the chip was washed and regenerated with regeneration buffer Glycine1.5 (Cat #BR100354, GE) or 3 M MgCl₂ (from Human antibody capture kit, Cat. #BR100839, GE). The data were fitted with the (1:1) Langmuir model using GE Biacore T200 Evaluation version 3.0 software, and the affinity values were obtained.

[5] = target: T4, Human CD3 antigen for detection (SinoBiological cat #CT038-H2508H); human CD3 epsilon-His and human CD3 … (human, UniProt P07766 23-126; P04234 22-105); test: as above
T4 construct: Bought antigen
Description: as §3

[6] = target: T3, Human B7H3 antigen for detection …; test: as above
Description: as §3

[7] = target: T5, Monkey CD3 antigen for detection (Acro biosystem cat #CDD-C52W4); monkey CD3 epsilon-His and monkey CD3 … (monkey (cyno), UniProt Q95LI5 22-117; Q95LI8 22-105); test: as above
T5 construct: Bought antigen
Description: as §3

[8] = target: T1, human B7H3 on the cell surface (A498, …); test: FACS on A498 cells expressing human B7H3, APC anti-human IgG Fc detection, geometric mean fluorescence
Description: as §1, §2

T5 sequence (Q95LI5 other isoform, or with tags, fused parts or gaps mutant, chain 1 of 2): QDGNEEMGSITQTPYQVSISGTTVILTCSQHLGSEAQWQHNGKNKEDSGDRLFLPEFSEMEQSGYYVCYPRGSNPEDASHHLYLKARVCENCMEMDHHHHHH
T5 sequence (Q95LI8 other isoform, or with tags, fused parts or gaps mutant, chain 2 of 2): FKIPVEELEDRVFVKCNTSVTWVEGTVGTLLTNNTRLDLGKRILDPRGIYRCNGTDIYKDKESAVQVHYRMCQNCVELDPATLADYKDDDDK
human CD3 on the cell surface (Jurkat recombinant cells; T cells of PBMC), sequence (P07766 23-207, chain 1 of 2): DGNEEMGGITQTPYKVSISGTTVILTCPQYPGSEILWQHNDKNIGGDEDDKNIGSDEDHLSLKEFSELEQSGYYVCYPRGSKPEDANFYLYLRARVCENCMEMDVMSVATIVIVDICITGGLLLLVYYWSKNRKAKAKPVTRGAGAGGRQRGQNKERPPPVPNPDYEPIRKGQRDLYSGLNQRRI
human CD3 on the cell surface (Jurkat recombinant cells; T cells of PBMC), sequence (P04234 22-171, chain 2 of 2): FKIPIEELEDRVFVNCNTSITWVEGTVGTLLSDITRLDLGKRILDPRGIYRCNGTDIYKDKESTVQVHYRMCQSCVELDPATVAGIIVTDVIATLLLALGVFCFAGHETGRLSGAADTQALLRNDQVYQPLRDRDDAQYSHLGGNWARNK
T4 sequence (P07766 other isoform, or with tags, fused parts or gaps H2508H H2508H, chain 1 of 2): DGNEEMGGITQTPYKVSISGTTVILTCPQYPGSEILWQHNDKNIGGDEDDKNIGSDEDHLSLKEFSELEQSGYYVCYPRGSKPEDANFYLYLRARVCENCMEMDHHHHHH
T4 sequence (P04234 other isoform, or with tags, fused parts or gaps H2508H H2508H, chain 2 of 2): as the sequence (Q95LI8 other isoform, or with tags, fused parts or gaps mutant, chain 2 of 2) above, with V5I, K15N, V20I, T32S, N33D, N34I, A64T, N74S, L83V counted along it

Row | Binder | EC50 (read off the curve) [1] | EC50 (read off the curve) [2] | Emax (%), PBMC-mediated killing of A498 cells (B7H3 high) [3] | Emax (%), PBMC-mediated killing of Detroit562 cells (B7H3 low) [3] | Emax (%), PBMC-mediated killing of U87 cells (B7H3 intermediate) [3] | IC50 (nM), PBMC-mediated killing of A498 cells (B7H3 high) [3] | IC50 (nM), PBMC-mediated killing of Detroit562 cells (B7H3 low) [3] | IC50 (nM), PBMC-mediated killing of U87 cells (B7H3 intermediate) [3] | Kd [4] | Kd [5] | Kd [6] | Kd [7] | EC50 (read off the curve) [8]
1 | bispecific antibody 118 (AFF 6-3) (bispecific antibody, B7H3 bivalent CD3-B7H3 bispecific antibody, CD3 VH HRH-3, CD3 scFv at the N-terminus) chain 1: not shown chain 2: QTVVTQEPSFSVSPGGTVTLTCGLSSGSVSTSHYPSWYQQTPGQAPRMLIYNTNTRSSGVPDRFSGSILGNKAALTITGAQADDESDYYCAIHVDRDIWVFGGGTKLTVLGGGGSGGGGSGGGGSQVQLVQSGGGVVQPGTSLRLSCAASGFIFSSSAMHWVRQAPGKGLEWVAVISYDGSNKYYVDSVKGRFTISRDNSKNTLYLQMNSLRAEDTAVYYCARSARLYASFDYWGQGALVTVSSGGGDKTHTCPPCPAPEAAGGPSVFLFPPKPKDTLMISRTPEVTCVVVDVSHEDPEVKFNWYVDGVEVHNAKTKPREEQYNSTYRVVSVLTVLHQDWLNGKEYKCKVSNKALPAPIEKTISKAKGQPREPQVCTLPPSREEMTKNQVSLSCAVKGFYPSDIAVEWESNGQPENNYKTTPPVLDSDGSFFLVSKLTVDKSRWQQGNVFSCSVMHEALHNHYTQKSLSLSPGK | ~100 nM | ~1 nM | 65.9% | 39.2% | 67.2% | 0.34 nM | 14.5 nM | 2.4 nM | 7.31 nM | 66.1 nM | 5.33 nM | 1.59 nM | –
2 | bispecific antibody 132 (AFF3-3SS) (bispecific antibody) chain 1: not shown chain 2: QTVVTQEPSFSVSPGGTVTLTCGLSSGSVSTSHYPSWYQQTPGQAPRMLIYNTNTRSSGVPDRFSGSILGNKAALTITGAQADDESDYYCAIHVDRDIWVFGGGTKLTVLGGGGSGGGGSGGGGSQVQLVQSGGGVVQPGTSLRLSCAASGFIFSSSAMHWVRQAPGKGLEWVAVISYDGSNKYYVDSVKGRFTISRDNSKNTLYLQMNSLRAEDTAVYYCARSARLYASFDYWGQGALVTVSSGGGDKTHTCPPCPAPEAAGGPSVFLFPPKPKDTLMISRTPEVTCVVVDVSHEDPEVKFNWYVDGVEVHNAKTKPREEQYNSTYRVVSVLTVLHQDWLNGKEYKCKVSNKALPAPIEKTISKAKGQPREPQVCTLPPSREEMTKNQVSLSCAVKGFYPSDIAVEWESNGQPENNYKTTPPVLDSDGSFFLVSKLTVDKSRWQQGNVFSCSVMHEALHNHYTQKSLSLSPGK | ~300 nM | ~2 nM | 66.4% | 15.2% | 67.6% | 2.94 nM | 15.7 nM | 11.9 nM | 6.9 nM | 85.3 nM | 5.35 nM | 0.813 nM | ~30 nM

— patent US20220242953A1 (JIANGSU HENGRUI MEDICINE, published 2022)
